The text below walks through data of publication PMC8190030.

What all share (conditions): remark: other sources report otherwise
The target in assay [1] is T1, N- (neural) cadherin of human fibroblasts (human (endogenous in primary fibroblasts)), P19022.
T1 chain: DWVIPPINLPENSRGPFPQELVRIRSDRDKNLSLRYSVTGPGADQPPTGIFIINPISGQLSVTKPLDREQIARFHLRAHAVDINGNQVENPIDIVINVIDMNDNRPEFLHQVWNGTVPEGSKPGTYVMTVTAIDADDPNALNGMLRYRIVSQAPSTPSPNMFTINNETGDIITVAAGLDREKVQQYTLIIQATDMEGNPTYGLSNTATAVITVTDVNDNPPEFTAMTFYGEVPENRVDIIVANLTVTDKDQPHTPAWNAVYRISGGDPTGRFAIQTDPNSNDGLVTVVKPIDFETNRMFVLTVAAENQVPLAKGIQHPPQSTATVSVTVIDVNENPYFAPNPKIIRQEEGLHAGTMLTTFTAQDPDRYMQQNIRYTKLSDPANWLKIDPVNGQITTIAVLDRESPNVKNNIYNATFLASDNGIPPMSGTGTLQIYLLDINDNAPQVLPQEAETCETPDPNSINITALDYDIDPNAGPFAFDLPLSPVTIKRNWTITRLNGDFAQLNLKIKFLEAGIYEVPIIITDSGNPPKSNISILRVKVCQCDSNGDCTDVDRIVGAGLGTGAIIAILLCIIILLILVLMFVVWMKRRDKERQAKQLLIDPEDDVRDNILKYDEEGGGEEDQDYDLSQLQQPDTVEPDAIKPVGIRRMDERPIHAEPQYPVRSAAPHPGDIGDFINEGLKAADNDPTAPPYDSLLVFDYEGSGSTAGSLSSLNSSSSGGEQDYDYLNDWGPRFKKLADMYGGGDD
The assay can be described thus: AFM single-cell force spectroscopy; as a1, approach and retract velocity 5 µm/sec.

In assay [2] the target is T1, N- (neural) cadherin of human …. The assay can be described thus: AFM single-cell force spectroscopy; as a1, approach and retract velocity 10 µm/sec.
Assay [3] shares this target. Description: AFM single-cell force spectroscopy; as a1, approach and retract velocity 7.5 µm/sec.
Assay [4] has the same target. The assay can be described thus: AFM single-cell force spectroscopy; DMSO control of the drug series; cell on cantilever against cell monolayer.
Assay [5] shares this target. Described as above.
The target is the same in assay [6]. The assay can be described thus: AFM single-cell force spectroscopy; with 5 µM ML-7 (myosin light chain kinase inhibited); cell on cantilever against cell monolayer.
Assay [7] has the same target. Description: AFM single-cell force spectroscopy; with 5 µM cytochalasin D (actin filaments disassembled); cell on cantilever against cell monolayer.
Assay [8] has the same target. Description: AFM single-cell force spectroscopy; control of the drug series (no drug and no DMSO); cell on cantilever against cell monolayer; velocity not stated for this series.
The target is the same in assay [9]. Described as above.
Assay [10] has the same target. The assay can be described thus: AFM single-cell force spectroscopy; living cell on a conA-coated tipless cantilever against a cell monolayer in a Petri dish; approach and retract velocity 3 µm/sec, maximum loading force 3 nN, contact time 2 s; 5% CO2; cadherin type assigned from immunofluorescence.

B1: N- (neural) cadherin of human fibroblasts, P19022 160-906 (natural protein)
chain: DWVIPPINLPENSRGPFPQELVRIRSDRDKNLSLRYSVTGPGADQPPTGIFIINPISGQLSVTKPLDREQIARFHLRAHAVDINGNQVENPIDIVINVIDMNDNRPEFLHQVWNGTVPEGSKPGTYVMTVTAIDADDPNALNGMLRYRIVSQAPSTPSPNMFTINNETGDIITVAAGLDREKVQQYTLIIQATDMEGNPTYGLSNTATAVITVTDVNDNPPEFTAMTFYGEVPENRVDIIVANLTVTDKDQPHTPAWNAVYRISGGDPTGRFAIQTDPNSNDGLVTVVKPIDFETNRMFVLTVAAENQVPLAKGIQHPPQSTATVSVTVIDVNENPYFAPNPKIIRQEEGLHAGTMLTTFTAQDPDRYMQQNIRYTKLSDPANWLKIDPVNGQITTIAVLDRESPNVKNNIYNATFLASDNGIPPMSGTGTLQIYLLDINDNAPQVLPQEAETCETPDPNSINITALDYDIDPNAGPFAFDLPLSPVTIKRNWTITRLNGDFAQLNLKIKFLEAGIYEVPIIITDSGNPPKSNISILRVKVCQCDSNGDCTDVDRIVGAGLGTGAIIAILLCIIILLILVLMFVVWMKRRDKERQAKQLLIDPEDDVRDNILKYDEEGGGEEDQDYDLSQLQQPDTVEPDAIKPVGIRRMDERPIHAEPQYPVRSAAPHPGDIGDFINEGLKAADNDPTAPPYDSLLVFDYEGSGSTAGSLSSLNSSSSGGEQDYDYLNDWGPRFKKLADMYGGGDD
For the molecule B1, the median rupture force (NF–NF cells) in [1] was 73.4 pN; in assay [2] it was 117 pN; in assay [3], 97.2 pN; in assay [4], 60.2 pN; in assay [5], 52 pN; in [6], 48.9 pN. Further, the median rupture force (NF–NF cells) in assay [7] came out at 31.1 pN; in [8], 61.9 pN; in assay [9], 58.8 pN; in assay [10], 51.9 pN. In addition, the median rupture force (SF–SF cells) in assay [1] is 74.2 pN; in assay [2], 129 pN; in assay [3], 103 pN; in assay [4], 48.3 pN; in [5], 53.1 pN; in assay [6] it was 49 pN. Further, the median rupture force (SF–SF cells) in assay [7] was found to be 30.5 pN; in [8], 58.4 pN; in assay [9], 66.2 pN; in assay [10], 45.2 pN.
